Measured values: article PMC4769699 (Environmental microbiology reports, 2015)

Target: the molecule itself
Assay: native MS

B1: AmrZ1-66 (AmrZ without the C-terminal domain) (domain or fragment)
chain: MRPLKQATPTYSSRTADKFVVRLPEGMREQIAEVARSHHRSMNSEIIARLEQSLLQEGALQDNLGV
For B1, the “stoichiometry N” value was 2.
